{"source": "patent US7819908B2", "about": "“Compositions and methods for reducing lung volume” (Aeris Therapeutics, Inc., priority 2002, dated 2010)", "tested_on": "sheep", "test": "Papain-induced emphysema in sheep: lung physiology, plethysmography, CT", "format": "in vivo", "description": "We examined the safety and utility of trypsin preconditioning for BVR in a group of seven sheep with emphysema generated by prior exposure to papain inhalation. This large animal model of emphysema is one with which we have extensive prior experience.", "key": {"[1]": {"details": "papain-induced emphysema, Campbell diagram"}}}
{"molecule": "papain: enzyme given by inhalation or instilled bronchoscopically to sheep to generate the emphysema model (protein, UniProt P00784 134-345, looked up) Papain: IPEYVDWRQKGAVTPVKNQGSCGSCWAFSAVVTIEGIIKIRTGNLNEYSEQELLDCDRRSYGCNGGYPWSALQLVAQYGIHYRNTYPYEGVQRYCRSREKGPYAAKTDGVRQVQPYNEGALLYSIANQPVSVVLEAAGKDFQLYRGGIFVGPCGNKVDHAVAAVGYGPNYILIKNSWGTGWGENGYIRIKRGTGNSYGVCGLYTSSFYPVKN", "values": [{"measurement": "tissue density in Houndsfield units measured by CT scanning", "setting": "2 weeks following serial papain exposure", "value": "significant decrease"}, {"measurement": "recoil pressures at full inflation", "setting": "after papain-induced emphysema, baseline 16.4 cm H2O", "value": 8.9, "unit": "cm H2O"}, {"measurement": "change in TLC and RV", "setting": "[1]", "value": "significant increase"}, {"measurement": "impact on active or passive chest wall mechanics", "setting": "[1]", "value": "no significant impact"}, {"measurement": "lung volume measured by plethysmography", "setting": "papain-treated vs untreated, 2 weeks after serial papain exposure", "value": "significant increase"}, {"measurement": "increase in airway resistance", "setting": "post-papain vs baseline", "value": "75±16", "unit": "%"}, {"measurement": "residual volume (RV) increased", "setting": "post-papain vs baseline", "value": "66±21", "unit": "%"}, {"measurement": "total lung capacity (TLC) increased", "setting": "post-papain vs baseline", "value": "10±3", "unit": "%"}, {"measurement": "vital capacity (VC) increased", "setting": "post-papain vs baseline", "value": "11±4", "unit": "%"}, {"measurement": "increase in total lung resistance (sum of airway and tissue components)", "setting": "post-papain vs baseline, normal respiratory frequencies", "value": "40±9", "unit": "%"}]}
